The values below come from patent US20220204643A1 (published 2022).

Holding throughout (assay): protein array
The target in experiment [1] is T1, BAR/IMD domain containing adaptor protein 2, transcript variant 3 (human, UniProt Q9UQB8 1-511).
T1 construct: on protein array; also called BAIAP2
T1 sequence: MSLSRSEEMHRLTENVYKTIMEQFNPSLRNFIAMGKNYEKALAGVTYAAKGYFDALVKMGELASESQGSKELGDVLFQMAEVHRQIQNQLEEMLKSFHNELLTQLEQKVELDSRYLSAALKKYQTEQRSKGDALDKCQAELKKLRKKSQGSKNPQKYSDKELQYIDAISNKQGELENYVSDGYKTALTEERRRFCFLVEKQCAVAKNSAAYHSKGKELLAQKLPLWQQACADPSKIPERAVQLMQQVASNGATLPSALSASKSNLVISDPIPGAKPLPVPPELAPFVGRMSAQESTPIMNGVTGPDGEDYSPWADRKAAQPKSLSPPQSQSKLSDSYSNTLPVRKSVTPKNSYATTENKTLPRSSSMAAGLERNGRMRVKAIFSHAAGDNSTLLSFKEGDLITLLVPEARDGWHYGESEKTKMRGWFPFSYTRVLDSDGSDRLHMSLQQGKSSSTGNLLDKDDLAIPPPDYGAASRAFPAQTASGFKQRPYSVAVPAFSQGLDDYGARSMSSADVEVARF

Experiment [2] addresses T2, homeobox and leucine zipper encoding (human, UniProt Q8IX15 25-550).
T2 construct: on protein array; also called HOMEZ
T2 sequence: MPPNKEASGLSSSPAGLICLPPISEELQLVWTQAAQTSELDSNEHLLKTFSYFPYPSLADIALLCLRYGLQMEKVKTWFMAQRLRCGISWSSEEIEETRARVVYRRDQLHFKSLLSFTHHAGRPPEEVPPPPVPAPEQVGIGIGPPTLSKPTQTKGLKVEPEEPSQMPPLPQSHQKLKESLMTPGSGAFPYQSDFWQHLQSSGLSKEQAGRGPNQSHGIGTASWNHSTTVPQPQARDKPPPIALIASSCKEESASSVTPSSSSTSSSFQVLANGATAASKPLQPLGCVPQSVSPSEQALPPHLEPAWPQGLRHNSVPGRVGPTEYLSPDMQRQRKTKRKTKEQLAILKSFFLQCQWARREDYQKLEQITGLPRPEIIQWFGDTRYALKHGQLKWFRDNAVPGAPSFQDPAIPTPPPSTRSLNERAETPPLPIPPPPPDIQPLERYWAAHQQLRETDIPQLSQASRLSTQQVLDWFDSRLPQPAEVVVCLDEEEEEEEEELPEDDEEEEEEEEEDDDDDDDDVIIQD

For experiment [3], the target named is T3, growth factor receptor bound protein 2, transcript variant 1 (human, UniProt P62993 1-217).
T3 construct: on protein array; also called GRB2

Experiment [4] deals with T4, leucine rich repeat containing 28, transcript variant 1 (human, UniProt Q86X40 1-367).
T4 construct: on protein array; also called LRRC28
T4 sequence (Q86X40 whole entry, change not shown): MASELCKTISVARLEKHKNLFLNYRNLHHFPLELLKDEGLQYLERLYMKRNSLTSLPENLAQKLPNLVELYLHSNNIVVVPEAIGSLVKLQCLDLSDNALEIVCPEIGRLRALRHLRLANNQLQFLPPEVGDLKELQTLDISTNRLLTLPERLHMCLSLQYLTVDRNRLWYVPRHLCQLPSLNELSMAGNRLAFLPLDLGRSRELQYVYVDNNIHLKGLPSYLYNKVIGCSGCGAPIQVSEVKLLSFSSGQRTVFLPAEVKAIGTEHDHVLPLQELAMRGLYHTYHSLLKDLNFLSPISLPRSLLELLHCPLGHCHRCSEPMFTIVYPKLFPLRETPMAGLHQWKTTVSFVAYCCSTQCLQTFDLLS

B1: TCOL1006 (antibody, V domains shown)
VH: EVQLVESGGGLVQPGGSLRLSCAASGFPPRSFAMSWVRQAPGKGLEWVSSISGLGNSIYYAESVKGRFITSRDNSKSTVFLLMNSLRAEDTAVYYCAKSAFGGVPDGFDIWGQGTMVTVSS
VL: QSVVTQPPSASGPPGQTVTISCSGGRSNVASHAVHWYQHLPGTAPKLLIYNDHQRPSGVPDRFSGSKSGPSASLAISGLRSEDEADYYCATWDDSLGGRVVFGGGTKLTVLG
notes: VH/VL only
Consider B1, for which the binding result in experiment [1] and in experiment [2] was “binds” each time.

B2: TCOL1009 (antibody, V domains shown)
VH: PVQLVQSGAEVKKPGASVKVSCKASGDTFPNYVISWVRQAPGQGLEWVGCINTNNGKTNYVQKLQGRVILTTDTSTNTANMELRSLRFDDTAVYYCARERGQVRSYGMDVWGQGTAVTVSS
VL: PYELTQPPSVSVSPGQTANITCSGDKLGDICVCWYQQKPGQSPVLVIYQHNKRPSGIPERFSGSNSGNTATLTISATQATDEAIYYCQSWDSSSVLFGGGTKLTVLG
notes: VH/VL only
For the molecule B2, the binding result in experiment [3] was “binds”.

B3: TESO1003 (antibody, V domains shown)
VH: QVQLVESGGGVVQPGRSLRLSCAASGFTFSNYDMHWVRQAPGKGLEWVTVVSYDGTNKYYAESVQGRFTISRDNSKNTLYLQMNSLRTEDTAVYYCAKEGGWGNTVTTSYYYYGMDVWGQGTTVTVSS
VL: QIVLTQSPATLSLSPGERATLSCRASQSVSNYLAWYQQKPGQAPRLLIYDASNRATGIPARFSGSGSGTDFTLTISSLEPEDFAVYYCQQRSNWPPYTFGQGTKLDIKR
notes: VH/VL only
For the molecule B3, in experiment [4], the binding result was “binds”.
